Assay results reported in the DeepSol protein solubility set.

Experiment: soluble on expression in E. coli; label from the status in PepcDB or PDB records
For “MGSDKIHHHHHHMSAVIGYRHGKAGERGIILCARQFQNSLNESSLEEIKRAIESYPFLQDYYEIGDKYIKSKDGRIVYVFAGLDRNIASIKSMGRVFLCWVDEAEPVTETAWQTLIPTLREEGNDWNAELWVTWNPCRENAPVEKRFRNVNNPHIKGAEITWRDNPQFPEKLNRDRKADLEQRPEHYNHIWEGEYLQTVEGAYYQKALLEASREGRITTVPRDPLMQIRIFWDIGGTGAKADATALWVAQFVGREIRVLDYYEAQGQPLSEHVGWVFQRGYDKALMVLPHDGATKDRVYNVSFESALQQAGFQTKVIPNQGVGAVKMRIEAVRRLFPAIWFNRETTHAGRKALAWYHEKRDEQRNIGLGAEHDWASHGADAFGLMCVAYEQPNMRPKKNTYRSSHHSQTSWMAF”, the “soluble on expression in E. coli” value was “not soluble”. For “MGSDKIHHHHHHMSCAHVLRTWAPCIMRRAEQALRNSSYLAWETAMGKLALAAKVTHVPSLYLSELDGPHKGCRQPAIDGHHEIGRRCRELGVDTIVVFDVHWLVNSEYHINCAPKFEGIYTSNELPHFIRNMPYAYPGNVELGNLIAEVASEMGVKSRAHSETTLELEYGTLVPMRYMNADQHFKAVSVAGWCVWHDLDTSVRFGLAVRKAIEERYEGTVAILASGSLSHHFANNGTAEQFMHKVWNPFLEQMDRKVVELWEAGDWKTFCEMLPLYNEKCWGEGGMHDTAMLLGALGWDRYEGKVEVVTPYFGSSGTGQINAIFPVTPLPV”, the “soluble on expression in E. coli” value was “not soluble”. For “MGSDKIHHHHHHMSDARGAFHSKGRWSRMALPAILCAGLLVGCGAEPPAEEHVRVLAQTVKMAEFASATSITGDIQARVQADQSFRVGGKIVERLVDVGDHVAAGQVLARLDPQDQRSNVENAQAAVAAQQAQSKLADLNYQRQKALLPKGYTSQSEYDQALASVRSAQSSLKAAQAQLANARDLLSYTELRASDAGVITARQAEVGQVVQATVPIFTLARDGERDAVFNVYESLFSHDVDGQRITVSLLGKPEVTASGKVREITPTVDERSGTLKVKVGLDSVPAEMSLGSVVNASVAAPAEHSVVLPWSALSKVGEQPAVWLLDQQGKARLQPVRVARYASEKVVIDGGLEAGQTVVTVGGQLLHPGQVVEVAQPPQPTQSTASRDAVGGGQP”, the “soluble on expression in E. coli” value was “not soluble”. For “MGSDKIHHHHHHMSDKLSQEQIDALLSQMSEGKVVDESTEIGDFGRFHPYDFHKPEKFGAEHLESLKTIASAFTKKSMEFVSQRIRIPIHTEATLADQVSFASGYIETMPNDSYIFCIIDLGNPELGQIIIELDLAYIIYIHECLSGGNPKRKLSERRLLSVFEELTLKSILEKFCEALKDSFKSVHPISPEIVNIETNPALLRVTSPNDMMALVSVDIKSEFWISTMRIGVPFFSVEEIMNKLENVVEYTFDKRRNFDAEVEQELHQVEKEARIRVGEIKTTWKELNMLEVGDVLLTETHIRDTLKGYVTEKWKFECYMGKSGNQKAVKFMRHTGRTEQER”, the “soluble on expression in E. coli” value was “not soluble”. In the case of “MGSDKIHHHHHHMSDKTKELRNKYNSKNRHKNFGPCLRKVHIEGFRGVQSADLELEFPITAISGLNGSGKSTVGQLAICAYKKPDKSMTYKRLYIKDFFPVSPADPKPISDSAKVVYFYETDDYQKPKEVTVSRVKSSWSGYKRQPERYCYYIGFTVYLPKVERRDLSVYAGVNLQFTEKRDIEAEVVKKMARIIGHKYENVAFQGVSHNGKESEVGIAYRLGYSYSENNMGFGEGRILYTIDKLESSPEQSLFILEEPETSLHESAQHEFAKYLLDVCNRRHHQIILSTHSSVIVNALPPESRKLMIRDEGGVDIRNKISSGQLRSILSSGHVRSLDICVEDNFAKVLLIEVIRMKRKALLKIVEIHAIGSTDAVREAVRILKKTGKKAIAVRDADIGPSEKEGLYSFPGNKPPEKEVFEHSAVKAFFKSKYDLDVEWFFQYKNVSDHHYYAKCIASEIASDESVIQTSAIEEYLKHVNNNFDYLIDAIEKELDNHN”, the “soluble on expression in E. coli” value is reported as “not soluble”. In the case of “MGSDKIHHHHHHMSDPGQPTLDQLRVFIAVVETGSFAAAARKLNRATSVISYTIANLEAQLGVTLFDRLSTKKPQLTLEGRTVLAEARSVSNGIDNLRAKVKSMLRGIEPEVHLALDVMLPASRVMDALKAFRKEFPSVSLRLYVEALGAVTQIVLNRTATVGISGPLDVDVLGLERIGVGFVQLVPVAAPDHPLAGGSHAPGAARSHIQLVLTDRSPLTQGHEFAVVGTHTWRLADLGAKHMLLKEGIGWGNMPEPMVRDDLADGRLVQLDLPDCKGGPYRLQAIYRTDTPPGPAGRFLIEHFQAQDAKTPTTAW”, the “soluble on expression in E. coli” value is reported as “not soluble”. With “MGSDKIHHHHHHMSDQANQGDLEIRPSPLLKVINDLHSKYKSLKEGIVANYIPELAKVNPDLFSISIVTVDGQVYQVGDYQQLFTIQSISKVFAYGLALEDHGRDYVLTRVGVEPTGEAFNAIILDEQSKRPYNPMVNAGAIATTSLIKGAGATERLNRVLEMFRRYIGHDVFVDISVFTSERSTGHRNRAMAHLMLNFGMIDRNIEEALDLYFQQCAVMVNCHDLAVMAATLANRGVNPITGEQAVNSRYIKDILSVMYTCGMYNFAGEWAYKVGIPAKSGVCGGIMAVVPNLMGIAVFSPPLDIRGNSVRGVKVCEELSQQLGLHLFECMKVGNGEWGVGNCEC” the “soluble on expression in E. coli” value was “not soluble”. For “MGSDKIHHHHHHMSDVLSQEEINQLIEALMKGELKEEDLLKEEEEKKVKPYDFKRPSKFSKEQLRTFQMIHENFGRALSTYLSGRLRTFVDVEISIDQLTYEEFIRSVMIPSFIVIFTGDVFEGSAIFEMRLDLFYTMLDIIMGGPGENPPNRPPTEIETSIMRKEVTNMLTLLAQAWSDFQYFIPSIENVETNPQFVQIVPPNEIVLLVTASVSWGEFTSFINVCWPFSLLEPLLEKLSDRFWMMGRKPEKVEERMEELRKASQKIPVTVQAVIGETELRLKEILDLEVGDVIRLGTHYKDEIRIDVEGRPKFRGIPGVFKGKYAVKVTGEFTNGGEYE”, the “soluble on expression in E. coli” value was “not soluble”. For “MGSDKIHHHHHHMSDVYDYLKESLPGDHSRQATAEAVLQARVAKGFAPAKVLDFGCGDGRSIDLFRRMLPQVDWTGVDIEASPEVASRRRQDGRFVTYDGYELPFPDRSFPLVYSHQVLEHVRKPELALREIARVLEPDGLFIGQTSQFEPYHSYSLWNFTVYGFKRIVEDAGMQLAELRPGIDGFTLMRRTYEGRPPEMSKYFSQESPINEEIEKAAGDKRTQVRNFRKLLFCGQFIFVVQLR”, the “soluble on expression in E. coli” value was “not soluble”. For “MGSDKIHHHHHHMSEKTLLELPKKFMEALMAPFIGREEEAKVITLALLSKEHVILIGEPGTAKSALARRAAELLNAKFFMYLLTKYTEPAELFGALDINALKDGQYKRITKDRLPESQIAFLDEIFNANSAILNALLSLLNERVIYDGYNVIKVPLRTLISASNRVPDEPELEALYDRLLLRHYARPVGEELWKQLLDATWEIEFTNRWAVKEPIMNIEHLDKLYSYLSQVDLSGVKNKLLKLYAMLEEKGIHLSDRRKGKVLKVVSAHAILNSRLKATEEDLIVLKYIAPREIDDFEKVAALLSEELKTPIKYMKELNEIYNNIKEAAKYVEAANESDPRLIELIRSLRATRDRIVALGKESGDEKVEEFSKEVLSEIDKLIEKVARKLGIYP”, the “soluble on expression in E. coli” value was “not soluble”. In the case of “MGSDKIHHHHHHMSGKIAFVTGATGLLGSNLCRALVSQGWQVKGLVRSLDKAKRFLGDSNIELIQGDIEDVPAFTQALKGVDVVFHTAAFFREYYQPGSDWQKMKRINVDTTIELLQAAEAQGVAKVVFTSSSGVIQTDPHQAATETAPYNKFAEQNLYFKTKILAEQEIYRFLNTSQIDVVMILPGWMMGPGDAAPTSAGQLVLDLLAGKLPGVINGGAALTDVRDVATVMVKAAEKGESGGRYIVAGPLTTMKEIALELEAISGVKAPRMEIPDGMAIAIAWFLEKFTGLTGGVNPMPLAGIQTLLEKAKLSSAKAERDLGATFRPLRETLKDTVLWYQSQGYV”, the “soluble on expression in E. coli” value is reported as “not soluble”. In the case of “MGSDKIHHHHHHMSGSKIKIALFNDTDFRVNIGCRLTSQGLKQQILDAFPAAEITSIGFNFAAFRKEFPKSTSAGGYELSDIETRLSTAYGEGAVDHIRAADFVILQPEGSLDHRTTAEGLATFFTPILTARKLGKPFAVLNGTIPIYEGERSDYLKGLFRELGHVAARDEISAEYYGIEFLADAAFLRISPAPVADRDGCLITTGARNNAEEDVEILKAALKICEAWKLRPVVLTHAVERFSPYEAEIIGRGGIFAETASIEHAAETISKCRLHIGGRYHMAIFSLLCNVPSLLFDVKTHKNQWLERYSPLITLVHPHTDLDAAAAAVLSGGVSQGHPGSTAAEKYVHFLKRAMAEQPL”, the “soluble on expression in E. coli” value is reported as “not soluble”. For “MGSDKIHHHHHHMSIEIRQVNNLRKKRQFFQYNYQLYKDDPYWVSWPVANLVKMFDPEECGFYEHGILEAWLAYQNGKIVGRIAGSIDGTYNQTYGVQTAFFGFYECIDDQDVSKILFEQVENWAQSYGMTQLLGPFSLSPIYGAGMLIAGFDDSPYVAMPYNRSYYPNQLESSGFKKAKDYNAFRIKGELTIPEFLTKNAQRWRNKRITYRQLNPDQLAQESDLVCDLYNDGFAGQWGYTYIERSEFYQLVLDWIQVIDPRLFLFVLIGDNPVGFGMLVPDVFQILHQTKTLPGLLRYLGRRIFTFGRENEITRYRLDSLCIRKQYQSLGLGVLLWCEIMQQYLNSNYTEIEFSPILEDNTMAQTLLLKLGAERSKVYRVFEKSWCN”, the “soluble on expression in E. coli” value was “not soluble”. In the case of “MGSDKIHHHHHHMSIIDSQESTLYQQLAETFATAIHQGTLAPGSRLPSIRRVAGSHQVSVNTVLNAWRILEDRGLIEARPQSGYFVRGRLPSLTESKPHRAQVIVPGSEKLDLIDTVFAAQTHPDYTNISLACPQHTDFYPTEKISRIAASLLRRQPELIGRYALPPGSERLRREVARRAMDLGMTLTREDITITHGCMEALQLALRTVTQPGDCVGLETPTYFYLFPLLASLGLKTVEIPTDPQRGLSLDALELLLSENRLQAIIAMPNAQNPLGCSMTLADKKRLAKLVNDYQVPLIEDGLYSELQFTWPLSPTVKAFDREGWVIYCSSFTKTLAPDFRIGWMASGRFRAQVARLKAVSSMAESALLSETLAQFLESGGYDHHLRTLRRRYAAQMDEARGLIARHFPQGTRATQPQGGFVFWLELPGGVDGVELFHRLLQEKICVTPGELYTLSGRCKHALRLSCCYPFDERYTYALKRAGALACEMSGIGPGNEG”, the “soluble on expression in E. coli” value is reported as “not soluble”. For “MGSDKIHHHHHHMSKKIIDEVIDILEDKKYTYTMIEYPEHNRKSVDIVLNSKEPTLIRVSEDKITKEEISDLKKIAVSTLTASLVVTNEEEEDIVSVKADNVFAISPEGFKKVINGEKIFLYRTRGGIFIKIRNYILKHKREEMGYSIGDVAKFLGVSRKAIYDYEKGDSDVSLEVAEKLIDLFGDDIIGDVIWDSIKSKKEILEEGVAEFSPENFKAKLIYKLKESGLNALSLKLTAADLIVKDSDNNRYLVTIENKDYNKSMKKFYEAKKLASYTKSELVIIIRTSKMLKECEDLGYKTYEENDIHSLIDEIKGSNGRQG”, the “soluble on expression in E. coli” value was “not soluble”. For “MGSDKIHHHHHHMSKLIVPQWPQPKGVAACSSTRIGGVSLPPYDSLNLGAHCGDNPDHVEENRKRLFAAGNLPSKPVWLEQVHGKDVLKLTGEPYASKRADASYSNTPGTVCAVMTADCLPVLFCNRAGTEVAAAHAGWRGLCAGVLEETVSCFADNPENILAWLGPAIGPRAFEVGGEVREAFMAVDAKASAAFIQHGDKYLADIYQLARQRLANVGVEQIFGGDRCTYTENETFFSYRRDKTTGRMASFIWLI”, the “soluble on expression in E. coli” value was “soluble”. For “MGSDKIHHHHHHMSKVIITCAVTGAIHTPSMSRYLPVTPEEIIEASVGAAEAGAAIIHLHARDPVTGKPDQSPDAFGRFLPQIKARTDAVLNITSGGSPYMTIEERIQPSMRFAPEVASLNMGSMNFALFPMLARFKEFKHAWEREALEASRDLIFRNTFKDIEYALAQCAANDTRFEFECYDVGHLYNLAHFVERGLVKAPFFVQTVFGILGGIGTHPEDVSHMKRTADRLFGNDYRWSVLGAGKDQLRLAGMSASMGGNVRVGLEDSLWLGRGTLAESNAAQVRQARQIIEGLGLEIASPNEAREILQLKGIEKVKF”, the “soluble on expression in E. coli” value was “not soluble”.
